Test results: US20240383970A1 (BEIJING IMMUNOCHINA PHARMACEUTICALS, published 2024)

Target: T1, CAR targeting CD19 containing a Strep-Tag II tag, on CAR-T cells (UniProt P01732 138-206; Q07011 214-255; P20963 52-163)
T1 construct: domain: CD8α hinge region, CD8α transmembrane region;domain: intracellular region of 4-IBB;domain: intracellular region of CD3ζ; Expressed on human T cells after lentiviral transduction; also called CAR-T cells containing a Strep-Tag II tag; Strep-Tag II short peptide
Assay: flow cytometry titration (10 concentrations) on CAR-T cells with Strep-Tag II tag; filing equates EC50 with KD (saturated concentration method)
Excerpt: The antibody affinity detection of the present invention adopts the dynamic equilibrium assay method (saturated concentration method). In the presence of a small amount of antigen, the antibody is subjected to gradient dilution to detect the concentration of the antigen-antibody complex. When the concentration of the antigen-antibody complex accounts for half of the total antigen concentration, the corresponding concentration value (EC50) of the antibody is the KD value of the antibody relative to the antigen.
CAR-T cells containing a Strep-Tag II tag were collected, washed with DPBS and counted. The cells were dispensed into several EP tubes at approximately 3×10⁵ cells per tube. After centrifugation to remove the supernatant, 8A882 antibody or 8F8D1 antibody and a positive control antibody (commercial Strep-Tag II antibody, Abcam; Cat #: ab184224) diluted in serial gradient for 10 concentrations were added and incubated at room temperature for 15 minutes. After washing the cells twice with DPBS, PE-labeled rat anti-mouse IgG was added, and incubated at room temperature for 15 minutes. After washing the cells twice, FACS analysis and GraphPad Prism software were used to calculate the EC50 value. […] Compared with the positive control antibody, the two strain antibodies of the present invention have high affinity.

T1 sequence (P20963 other isoform, or with tags, fused parts or gaps): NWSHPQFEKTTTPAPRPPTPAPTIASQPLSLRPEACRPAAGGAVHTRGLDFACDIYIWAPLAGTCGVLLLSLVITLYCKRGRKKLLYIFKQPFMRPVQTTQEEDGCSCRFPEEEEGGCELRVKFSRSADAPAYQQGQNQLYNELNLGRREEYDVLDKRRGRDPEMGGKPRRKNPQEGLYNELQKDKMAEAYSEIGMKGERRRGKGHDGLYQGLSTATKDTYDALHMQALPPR

B1: 8A882 antibody (antibody, mouse IgG1, kappa, V domains shown)
VH: EVQLQQSGPELVKPGASVKMSCKASGYTFTDYYMKWVKQSHGKSLEWIGDINPNNGDTFYNQKFKGKATLTVDKSSSSAYMQLNSLTSEDSAVYYCARYYGNSSPWFAYWGQGTLVTVSA
VL: DIVLTQSPASLAVSLGQRATISCKASQSVDYDGDSYMNWYQQKPGQPPKLLIYAASNLQSGIPARFSGSGSGTDFTLNIHPVEEEDTATYYCQQITEDPWTFGGRTKLEIKR
notes: Mouse monoclonal antibody from a hybridoma, purified from ascites on a Protein A/G column
EC50: 0.4 nM

B2: 8F8D1 antibody (antibody, V domains shown)
VH: EVQLQQSGPELVKPGASVKMSCKASGYTFTDYYMKWVKQSHGKRLEWIGDINPNNGDTFYNQKFKGKATLTVDKSSSTAYMQLNSLTSEDSAVYYCARYYGRSSPWFPYWGQGTLVTVSA
VL: DIVLTQSPASLGVSLGQRATISCKASQSVDNSGDSYMNWYQQKPGQPPKLLIYAASNLESGIPARFSGSGSGTDFTLNIHPVEEEDAATYYCQQINEDPWTFGGRTKLEIKR
notes: Mouse monoclonal antibody from a hybridoma, purified from ascites on a Protein A/G column; also called PE-labeled 8F8D1 antibody
EC50: 0.2 nM
